Results on 1 substance are retold here after ChEMBL document CHEMBL2074420, “Taxol transport by human intestinal epithelial Caco-2 cells” (Drug Metab Dispos, 1998).

For this series, the system named is CC(=O)O[C@H]1C(=O)[C@@]2(C)[C@H]([C@H](OC(=O)c3ccccc3)[C@]3(O)C[C@H](OC(=O)[C@H](O)[C@@H](NC(=O)c4ccccc4)c4ccccc4)C(C)=C1C3(C)C)[C@]1(OC(C)=O)CO[C@@H]1C[C@@H]2O. In words: TP_TRANSPORTER: transepithelial transport (basal to apical) in Caco-2 cells. It counts as functional, cell-based.

As to “ATP-dependent translocase ABCB1 (Homo sapiens)”, the Km worked out at 16.5 µM.
